{"source": "patent US20170224771A1", "about": "“HISTATINS AS THERAPEUTIC AGENTS FOR OCULAR SURFACE DISEASE” (RAPID PATHOGEN SCREENING, INC., priority 2014, published 2017)", "key": {"[1]": {"assay": "Stability of ocular histatin formulation, determined by mass spectroscopy", "type": "physicochemical", "conditions": "100 μg/mL in commercially-available gel tears lubricating eye drop with 0.25% PEG in aqueous buffered borate salt solution", "procedure": "In some embodiments, the ocular histatin formulation is stable both at room temperature (25° C.) and at 45° C. for at least 90 days."}, "[2]": {"system": "cultured ocular epithelial cells", "conditions": "cultured ocular epithelial cells in vitro; cited from earlier work"}, "[3]": {"molecular_target": "MMP-9 (Homo sapiens, UniProt P14780)", "sequence (P14780 94-707)": "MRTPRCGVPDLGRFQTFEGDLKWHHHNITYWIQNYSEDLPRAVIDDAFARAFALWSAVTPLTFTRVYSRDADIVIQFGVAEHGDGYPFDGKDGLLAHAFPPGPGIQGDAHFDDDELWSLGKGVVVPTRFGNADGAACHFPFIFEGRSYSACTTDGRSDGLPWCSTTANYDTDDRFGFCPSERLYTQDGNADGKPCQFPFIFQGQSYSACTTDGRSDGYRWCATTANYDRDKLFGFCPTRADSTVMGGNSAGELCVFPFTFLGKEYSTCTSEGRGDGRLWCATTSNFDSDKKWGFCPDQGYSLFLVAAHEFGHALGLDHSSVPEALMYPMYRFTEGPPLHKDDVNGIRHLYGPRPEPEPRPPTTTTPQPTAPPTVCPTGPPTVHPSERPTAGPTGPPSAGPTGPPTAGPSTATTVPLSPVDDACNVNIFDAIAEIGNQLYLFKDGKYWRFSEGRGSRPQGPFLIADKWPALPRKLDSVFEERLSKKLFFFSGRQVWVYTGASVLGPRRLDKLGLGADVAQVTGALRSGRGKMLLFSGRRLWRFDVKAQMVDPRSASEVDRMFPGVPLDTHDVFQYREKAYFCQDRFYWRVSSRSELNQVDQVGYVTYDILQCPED", "conditions": "host protease; according to Gusman; cited from earlier work"}, "[4]": {"molecular_target": "T1, MMP-2 (Homo sapiens, UniProt P08253)", "T1 sequence (P08253 110-660)": "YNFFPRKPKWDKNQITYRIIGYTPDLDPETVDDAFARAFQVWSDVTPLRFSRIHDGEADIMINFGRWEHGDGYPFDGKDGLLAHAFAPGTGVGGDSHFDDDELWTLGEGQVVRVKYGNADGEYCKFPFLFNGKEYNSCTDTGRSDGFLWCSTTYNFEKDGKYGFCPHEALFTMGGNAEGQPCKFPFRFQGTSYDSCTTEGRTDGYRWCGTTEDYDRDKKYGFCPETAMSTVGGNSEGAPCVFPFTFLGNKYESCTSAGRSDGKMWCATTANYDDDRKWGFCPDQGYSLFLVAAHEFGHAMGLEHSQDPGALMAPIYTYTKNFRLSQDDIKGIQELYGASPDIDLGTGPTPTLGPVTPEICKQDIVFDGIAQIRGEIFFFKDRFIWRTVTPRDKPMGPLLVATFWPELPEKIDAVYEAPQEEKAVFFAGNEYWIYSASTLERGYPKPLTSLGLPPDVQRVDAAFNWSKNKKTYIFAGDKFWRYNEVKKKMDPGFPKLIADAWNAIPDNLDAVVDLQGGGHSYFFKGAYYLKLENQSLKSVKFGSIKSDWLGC", "conditions": "host protease; according to Gusman; cited from earlier work"}}, "data": [{"substance": "cyclized histatin 1: sortase cyclized histatin (including all of Histatin 1) (GGDSHEKRHHGYRRKFHEKHHSHREFPFYGDYGSNYLYDNLPET; sortase cyclization)", "values": [{"measurement": "time found to be stable", "setting": "[1]; 25° C.", "result": "at least 505 days"}, {"measurement": "time found to be stable", "setting": "[1]; 45° C.", "result": "at least 90 days"}]}, {"substance": "Benzalkonium chloride", "values": [{"measurement": "cytotoxicity", "setting": "[2]", "result": "significant cytotoxicity"}]}, {"substance": "histatin 5: naturally occurring oral salivary peptide; SEQ ID NO: 30 peptide", "values": [{"measurement": "inhibition of MMP-9 activity", "setting": "[3]", "result": "greatly inhibited"}, {"measurement": "inhibition of MMP-2 activity", "setting": "[4]", "result": "greatly inhibited"}]}]}
